From publication PMC9289529, “Varicella‐Zoster virus ORF9 is an antagonist of the DNA sensor cGAS”

Experiments:
ORF9 (FLAG-ORF9) = biological target: T1, ORF9 (FLAG-ORF9) (Varicella-zoster virus, UniProt Q4JQW6 1-302); assay: pull-down; conditions: protein: recombinant; tags: N-terminal FLAG (GST cleaved by PreScission); label: biotin; blunt
T1 sequence: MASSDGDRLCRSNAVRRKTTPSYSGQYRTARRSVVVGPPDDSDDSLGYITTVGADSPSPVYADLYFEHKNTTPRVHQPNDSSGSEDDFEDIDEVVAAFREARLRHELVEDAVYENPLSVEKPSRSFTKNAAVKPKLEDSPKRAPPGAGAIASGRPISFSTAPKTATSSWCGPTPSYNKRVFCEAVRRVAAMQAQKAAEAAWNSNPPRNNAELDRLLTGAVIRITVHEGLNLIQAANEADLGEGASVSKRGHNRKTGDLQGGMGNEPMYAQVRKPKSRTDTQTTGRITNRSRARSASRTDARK

[1] = biological target: cGAS (pull-down preparation) (human, UniProt Q8N884 1-522); assay: pull-down; Binding buffers for pull-down, EMSA and phase separation not in the material; phase separation tested at varied NaCl/KCl up to 300 mM or more; conditions: protein: recombinant; tags: GST cleaved by PreScission; label: biotin; blunt
Chain of cGAS (pull-down preparation) (Q8N884 whole entry): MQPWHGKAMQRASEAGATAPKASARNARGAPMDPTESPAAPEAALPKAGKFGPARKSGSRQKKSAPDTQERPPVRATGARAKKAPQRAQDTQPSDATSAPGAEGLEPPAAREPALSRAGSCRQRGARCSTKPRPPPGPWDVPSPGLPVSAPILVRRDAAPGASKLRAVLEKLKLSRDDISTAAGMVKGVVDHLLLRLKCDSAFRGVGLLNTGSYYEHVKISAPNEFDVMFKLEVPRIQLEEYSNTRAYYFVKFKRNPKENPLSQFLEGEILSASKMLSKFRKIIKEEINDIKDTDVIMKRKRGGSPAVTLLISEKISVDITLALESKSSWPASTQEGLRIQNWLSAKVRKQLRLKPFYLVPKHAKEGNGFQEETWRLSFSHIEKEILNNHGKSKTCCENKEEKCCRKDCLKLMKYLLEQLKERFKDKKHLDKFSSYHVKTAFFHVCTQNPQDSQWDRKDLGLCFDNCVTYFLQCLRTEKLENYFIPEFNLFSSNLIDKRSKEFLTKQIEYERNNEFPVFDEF

[2] = biological target: hcGAS;ORF9 (EMSA preparation) (human;Varicella-zoster virus, UniProt Q8N884;Q4JQW6 1-522;1-302, |); assay: EMSA (agarose); increasing ORF9 enlarges cGAS-DNA complexes; Binding buffers for pull-down, EMSA and phase separation not in the material; phase separation tested at varied NaCl/KCl up to 300 mM or more; conditions: protein: recombinant;recombinant; tags: 6xHis-SUMO2 construct (pET);N-terminal FLAG (pET28a, Ni-NTA purified); blunt
Chain of hcGAS;ORF9 (EMSA preparation) (Q8N884 whole entry, one chain of several): as the sequence (Q8N884 whole entry) above

ORF9 (EMSA preparation) = biological target: T2, ORF9 (EMSA preparation) (Varicella-zoster virus, UniProt Q4JQW6 1-302); assay: EMSA (agarose); Binding buffers for pull-down, EMSA and phase separation not in the material; phase separation tested at varied NaCl/KCl up to 300 mM or more; conditions: protein: recombinant; tags: N-terminal FLAG (pET28a, Ni-NTA purified); blunt
T2 sequence: T1 sequence

hcGAS [3] = biological target: T3, hcGAS (human, UniProt Q8N884 1-522); assay: EMSA (agarose); high-molecular-weight complexes; Binding buffers for pull-down, EMSA and phase separation not in the material; phase separation tested at varied NaCl/KCl up to 300 mM or more; conditions: protein: recombinant; tags: 6xHis-SUMO2 construct (pET); blunt
T3 sequence (Q8N884 whole entry): as above

[4] = biological target: hcGAS;ORF9 (phase separation preparation) (human;Varicella-zoster virus, UniProt Q8N884;Q4JQW6 1-522;1-302, |); assay: phase separation microscopy; 3-fold molar excess ORF9; larger droplets, also formed at 300 mM NaCl/KCl; Binding buffers for pull-down, EMSA and phase separation not in the material; phase separation tested at varied NaCl/KCl up to 300 mM or more; conditions: protein: recombinant;recombinant; tags: 6xHis-SUMO2 construct (pET);6xHis-SUMO2 removed by SENP2; blunt
Chain of hcGAS;ORF9 (phase separation preparation) (Q8N884 whole entry, one chain of several): as the sequence (Q8N884 whole entry) above

hcGAS [5] = biological target: T3, hcGAS; assay: phase separation microscopy; droplets sensitive to salt >250 mM; none at 300 mM NaCl/KCl; Binding buffers for pull-down, EMSA and phase separation not in the material; phase separation tested at varied NaCl/KCl up to 300 mM or more; conditions: protein: recombinant; tags: 6xHis-SUMO2 construct (pET); blunt
[6] = biological target: T4, ORF9 (phase separation preparation) (Varicella-zoster virus, UniProt Q4JQW6 1-302); assay: phase separation microscopy; no cGAS; smaller droplets than cGAS-DNA; Binding buffers for pull-down, EMSA and phase separation not in the material; phase separation tested at varied NaCl/KCl up to 300 mM or more; conditions: protein: recombinant; tags: 6xHis-SUMO2 removed by SENP2; blunt
T4 sequence: T1 sequence

B1: VACV-70mer-Biotin (dsDNA)
DNA 1: CCATCAGAAAGAGGTTTAATATTTTTGTGAGACCATCGAAGAGAGAAAGAGATAAAACTTTTTTACGACT
DNA 2: AGTCGTAAAAAAGTTTTATCTCTTTCTCTCTTCGATGGTCTCACAAAAATATTAAACCTCTTTCTGATGG
modifications: 3' TEG-biotin on forward strand
B1: binds (ORF9 (FLAG-ORF9)); binds [1].

B2: VACV70mer dsDNA (dsDNA)
DNA 1: B1 DNA 1
DNA 2: B1 DNA 2
B2: binds [2]; binds (ORF9 (EMSA preparation)); binds (hcGAS [3]).

B3: 100 bp ISD (dsDNA)
DNA 1: ACATCTAGTACATGTCTAGTCAGTATCTAGTGATTATCTAGACATACATCTAGTACATGTCTAGTCAGTATCTAGTGATTATCTAGACATGGACTCATCC
DNA 2: GGATGAGTCCATGTCTAGATAATCACTAGATACTGACTAGACATGTACTAGATGTATGTCTAGATAATCACTAGATACTGACTAGACATGTACTAGATGT
B3: binds [4]; binds (hcGAS [5]); binds [6].
